Data set [1] concerns the target T1, thrombin (human, UniProt P00734;P00734 328-363;364-622). Description: guided mode resonance sensor (kinetic, Langmuir 1:1); 0.50 uM thrombin; ka 1.52e5 M-1s-1, kd 0.61e-1 s-1; Aptamer immobilized from 1 uM in PBS; assay buffer, salt and temperature not given in the material (Tris-HCl pH 7.4 and sodium phosphate listed as reagents); re.
Data set [2] concerns the target T1, thrombin. Kind of data set: guided mode resonance sensor (Langmuir linear regression); 0.25-1 uM thrombin; order of magnitude only; Aptamer immobilized from 1 uM in PBS; assay buffer, salt and temperature not given in the material (Tris-HCl pH 7.4 and sodium phosphate listed as reagents); re.
In data set [3] the target is T1, thrombin. Kind of data set: guided mode resonance sensor (kinetic, Langmuir 1:1); 0.25 uM thrombin; ka 2.06e5 M-1s-1, kd 1.05e-1 s-1; Aptamer immobilized from 1 uM in PBS; assay buffer, salt and temperature not given in the material (Tris-HCl pH 7.4 and sodium phosphate listed as reagents); re.
Data set [4] has as its target T1, thrombin. Kind of data set: guided mode resonance sensor (kinetic, Langmuir 1:1); 1.50 uM thrombin; ka 0.20e5 M-1s-1, kd 1.33e-1 s-1; Aptamer immobilized from 1 uM in PBS; assay buffer, salt and temperature not given in the material (Tris-HCl pH 7.4 and sodium phosphate listed as reagents); re.
The target in data set [5] is T1, thrombin. Description: guided mode resonance sensor (kinetic, Langmuir 1:1); 1.00 uM thrombin; ka 0.18e5 M-1s-1, kd 1.54e-1 s-1; Aptamer immobilized from 1 uM in PBS; assay buffer, salt and temperature not given in the material (Tris-HCl pH 7.4 and sodium phosphate listed as reagents); re.
Data set [6] has as its target T1, thrombin. Kind of data set: guided mode resonance sensor (kinetic, Langmuir 1:1); 0.75 uM thrombin; ka 1.83e5 M-1s-1, kd 0.30e-1 s-1; Aptamer immobilized from 1 uM in PBS; assay buffer, salt and temperature not given in the material (Tris-HCl pH 7.4 and sodium phosphate listed as reagents); re.

Take AGTCCGTGGTAGGGCAGGTTGGGGTGACT (structured_DNA, 5' NH2) [29-mer thrombin aptamer (TBA)]: the Ka with thrombin [1] is 2.5 10^6 M^-1; with thrombin [2], ~1 10^6 M^-1; with thrombin [3] it was 1.95 10^6 M^-1; with thrombin [4], 0.15 10^6 M^-1; with thrombin [5], 0.12 10^6 M^-1; in the data set with thrombin [6], 6.18 10^6 M^-1.

Values taken from PMC3231483.
